# Laboratory results taken from the DeepSol protein solubility set.
# Test: soluble on expression in E. coli; label from the status in PepcDB or PDB records
row,Sequence,soluble on expression in E. coli
1,MDRKTRLSEPPTLALRLKPYKTAIQQLRSVIRALKENTTVTFLPTPSLILQTVRSHCVSKITFNSSCLYITDKSFQPKTINNSTPLLGNFMYLTSSKDLTKFYVQDISDLSAKISMCAPDFNMEFSSACVHGQDIVRESENSAVHVDLDFGVVADLLKWIGPHTRVKRNVKKAPCPTGTVQILVHAGPPAIKFILTNGSELEFTSNNRVSFHGVKNMRINVQLKNFYQTLLNCAVTKLPCTLRIVTEHDTLLYVASRNGLFAVENFLTEEPFQRGDPFDKNYVGNSGKSR,soluble
2,MDRMDKAAKINIINANVRNAQTGDYYYNPYKIVNKTFTDTDGKQVTLKIGITGVLPTQILVWDKANLEGKVTVDDPMEAVKTIVPQMKAAGADFILVAAHSGIGDNEYTKNEENEGYQIAGIEGVDAVATGHSHADFPNGDGTSFYAKYPGVDDVNGLINGKPVVMAGKFGDHLGIMDVKLTYTDGKWKVVNSKAKLEKIDTKSDIADKALIDMAAHDHDGTILTMFVRKLVRPL,not soluble
3,MDSEQINVNLDIGAKAVMLARRAAAAKLNNEKLPEVPDDPIFHEKHGVFTTINTYPDNQLRGCIGFPEPYYELGEGIIKSSIYAATDDPRFDPMEPDELNRVTFELSILTVPQEVTVNPEERPKAITVGKDGIIAVYNGASGLLLPQVATEYRMSAEEFLEALCEKAGLWQGCWKYKKVKISKFQAIVFGEIEPNGKVEQRAAALEHHHHHH,soluble
4,MDSGRLAVIALGGNAIAGPGMDVSVESQTAAVKRASSIIADVLADGWRSVITHGNGPQVGYLSEAFEALPPERPRQPLYIATAMTQAWIGLLLKHSLEEELRRRGLNVLVPVVISRVLVDVSDPSFNNPSKPVGPIYGREEAEELSRRYGWVFKRDPRGGFRRVVPSPRPVSIVDRDLIAEASAESPAVVALGGGGVPVVERPGGVLEPVEAVVDKDLASSLLATQLNADLLVILTDVPGVAVNYGREGERWLRRAAASELKKYLREGHFPPGSMGPKVEAAISFVERTGKPAVIGSLEEARQVLSLQAGTVVMLG,soluble
5,MDSGYWQSQFEDWLRHHHQEQDAAHDIFHFRRVWATAQTLGENSPVDWLVVLSACYFHDIVSLAKNHPQRHRSSILAAAETRRIFLRDFPDFPAEKLAGICHAIEAHSFSAKIAPTTPEAKIVQDADRLEALGAIGLARVFAVSGALGVALFDADDPFANRRPLNDKQFALDHFQTKLLKLPLTMQTERGKSLAQRNADFLVSYMAKLSAELKGDYETRDDAVIQMFATHQLEHHHHHH,soluble
6,MDSLPTSATNGPAGLSAEADAEPHARLTFDLDVDLCVIGAGLAGLSVALEAAQAGLSVAVLESGRIGWGASGHNLGSVTPGYGVPIGDLIARVGLDHASALWALTREGMEIVRARATEEAMPGVALSDGALEVSNVDIGDRLVERLQTLGVDFGSEVEGWPIDKVRDVLRTNRYFHGIHYPTAFQLDGRRYLRGLERLARQAGARIFEETPAVSIDFAGIRKRISTPNARLRASDIVLAGSVHLGAPSPRVAETLLPVWRTAALTAPLGEQLPDAIAFAGSIADTDGVDHYRIVGGDRLLWASGETTFDVAPQRLAGIIRRRIAAVFPQLGQVEIAQTFSAAVGMTVHGMPQVGELRPGLWVASGFGRQGLATTAIAGRLIARGLTHSDERWKLFSPFDLVWAGGTIGRIVGQGVYFATREGALAAGALARYRERAAARTRVRDARAEVKQEERRARVALLRAAEAANVPPPNAPSRRPVPPPSPELEHHHHHH,not soluble
7,MDTEKLRRQLIDRITDNYSEYRASLLLKDRQELIDGAGRIADTATVFQHLADRSYKPEELEYLLKFQNPLEVVTEHWADYELMPDVLDALIADTVDRQDDLTLFPLATDAPAQKPESLRKFLNVDLETVLPQIMKQKTAFYQTDLNYALDAMREGATSGDPAKQNFVLIFRQSGVECLNERDMFIGGTRSFNTLQFYHTQTREPVLTYSVELTGDGKDGLRGNLYQQDNHRLAEYAGRTASPYTDVTVTFTGGKEVRLPEKEFYYEKAASLKYLHGSIKEVRNEAEDETVVQGAVKREHDRRREMPRGYFAVHLQALDEQRIQAEADRLSSALTDLKQPNSPDKEKFMVEISVYFLPLASQHDMNRLFEKVRDQVGQTVYITPPDDTHKRYFVMRREERAQEQPERKPSIKAQLSAKPVPGDKPATKTKDREVR,not soluble
8,MDTFEKLDKVDLQILRTLQENARLTTKELAARVSLSSTPVFERLKRLESGGYIKKYIAVLDAEKLNQGFVVFCSVKLRRLNRDIAAEFTRIIQDIPEVTECYNISGSYDYLLKIHAPNMKYYQEFILNVLGTIDSLGSLESTFVMAEVKHRYGIHI,soluble
9,MDTLQGMRVFARVVDSGSFTSAAQALDLSTAQVSRLISDLEAHLQTRLLHRTTRRLALTEAGERYLERCRGILEDIEVAEAEAAGAHIRPCGRLRVQSLMGMGQHHLVPMIARYGALFPDVVIELTLSQRNPDMLEEGQDVLITGERQLPDSEFVAQRLGSIHSVLCASPGYLQQHGVPRSVDDLERHVCLRLQDPAYPEGWIFADEQGERTVSPQNTFMVNVAEVMAQAAKADLGIALLPSYVAAAALRNGELLRVLPGHAMHQRTIYALYPSRRYLDAKIRTWVDLLQQELPQAFARDETTMQSSSYCAQ,not soluble
10,MDTPPTVFSIIIPVYNRPDEVRELLESLLIQTNSDFEVIIVEDGSSVCCDKEVDRVRELLRIQYVRVPNGGPAAARNIGARMAVGEYLLILDSDVVLPSGYIAAVKKRIEQMQADAFGGPDAAAEGFSPIQKAINYAMTSFFTTGGIRGGRRVRLDKFYPRSFNFGCKLSVYRQLGGFSEEMRFGEDIDFSLRLFKAGYNVCLFPEAFVFHKRRIDFKKFFRQVYNSGIARIHLQRRHPGSMKP,not soluble
11,MDVNTASQSTTDEQMMDILLVLDKEKKTISAVKGVDENGELQTVPPENNSELLKFDRHGDFFSNFFSNMMNQLKNPTRFNFFKIPKIELPKIEPIIRDNFNHPTPENEAGIERYRVTPETVKQEAKKEQQETQAQQPQQPAKEAGAMAQTPQQPDKSKYVIDPDKVDWEALKNFGLSKEQLEKAKALEPMLRGYKSPGAFTIAGNYNSAIMKLDARLSFRHDKDGNVVLAIHGIRQKPELERPFFGHEFSKEDKANLLETGNMGRIVNLKNYITGEMIPSFVSVDKVTNELVSMRASSVQIPDEIKGVKLNKEQKQALREGKGVFLENMISNRKNPFSATVQVNADKKSLEFIYPNAKQSQEQGQKQTQQNSLVTSDGVTIPKSISGIELSRQQQQDLVNDKTIFVAGLKDKRGVEYDAYIQVNHDKKKLGFYSDNPSFDRSAVKEITPASKNRTQVAVNSEGKTNEATKKVKEPLKKGQDKPTEKQKTKQDKKEKQEQTDKPKQSRGRKR,not soluble
12,MDWGRFVEEKVREIRETVGDSKAIIALSGGVDSSTAAVLAHKAIGDRLHAVFVNTGFLRKGEPEFVVKTFRDEFGMNLHYVDAQDRFFSALKGVTDPEEKRKIIGRVFIEVFEEVAKKIGAEYLIQGTIAPDWIESQGKIKSHHNVGGLPEKLNLKLIEPLRDLYKDEVRELAKFLGLPEKIYNRMPFPGPGLAVRVIGEVTPEKIRIVREANAIVEEEVERAGLRPWQAFAVLLGVKTVGVQGDIRAYKETIAVRIVESIDGMTANAMNVPWEVLQRIAFRITSEIPEVGRVLYDITNKPPATIEFE,soluble
13,MDYSHQTSLVPCGQDKYISKNELLLHLKTYNLYYEGQNLQLRHREEEDEFIVEGLLNISWGLRRPIRLQMQDDNERIRPPPSSSSWHSGCNLGAQGTTLKPLTVPKVQISEVDAPPEGDQMPSSTDSRGLKPLQEDTPQLMRTRSDVGVRRRGNVRTPSDQRRIRRHRFSINGHFYNHKTSVFTPAYGSVTNVRINSTMTTPQVLKLLLNKFKIENSAEEFALYVVHTSGEKQKLKATDYPLIARILQGPCEQISKVFLMEKDQVEEVTYDVAQYIKFEMPVLKSFIQKLQEEEDREVKKLMRKYTVLRLMIRQRLEEIAETPATILEHHHHHH,soluble
14,MDYSKIIKEVGRGKNHARDLDQPTAYALYKAMLAGQVPALELGGILIAFRIKGESEQEILGFYQAMQEQVMSLRAPVDRPLPVVIPSYNGARKQANLTPLLALLLSRLGLPVVVHGVTEDSSRVTSAEIFQQLNIPWSLSVQEAQQRLDNGLPVFIPVSALSMQLDQQLQQRWRMGVRNSSHTLAKLATPFTHDKALRVASVSHPEYMQKVGGFFQAISAPGLLLQGTEGEVYANPLRCPPIHYINDGEQTILLDRSSESVVPELPLSKDAVITARWIEGCLAGEQPIPDSILKQLACCLVAAGQADSVELALQQIKIV,not soluble
15,MEALEEYTPTLLGEVAATLRGENELWLGLALISGKFNDLEPEQLAAAASALITETPRSDAWTDFKPSPVVLAALRPSNDLFGLLFCLKHPQPPLALWQAMTVADHLQRLNLWDLRRKLIKAQNQRAIAIPLWLEVDFMGLVEQWALGMEWENLCRQTSLDEGDLVRLFRRTVDLLWQIPQVPHLSPRLKRNARIAVQQMKRFPLLEHHHHHH,not soluble
16,MEALRASYGDSSSDSDTDDLSPASPVTANSGEKDSISLPPPPLALLDSIVSTGSLDFFSTEPGVRVRNFPHVDGNYALHVYVPVCIPPLPKKEIVCFLKKVASVVPHLHLVEADVPLSILCKDDQKFERALGREFHISLGRNVPLRVHQINSVISMLRQKLQLQKRYLIDFNKWEVFVNDDHTRSFLSLEITTSGLSEISKQIDAVNEVYKLHNLPEFYKDPRPHISLVWALGDIRTSLKGAVDVELRKLRAGGCVQNRIFTSKFCGIECKIGNKTHKICKLPDE,soluble
17,MEALRLGFSPCPNDTFIFYALVHGRVESPVPLEPVLEDVETLNRWALEGRLPLTKLSYAAYAQVRDRYVALRSGGALGRGVGPLVVARGPLQALEGLRVAVPGRHTTAYFLLSLYAQGFVPVEVRYDRILPMVAQGEVEAGLIIHESRFTYPRYGLVQVVDLGAWWEERTGLPLPLGAILARRDLGEGLIRALDEAVRRSVAYALAHPEEALDYMRAHAQELSDEVIWAHVHTYVNAFSLDVGEEGERAVARLFAEAEARGLAAPSPRPLFV,soluble
18,MEAVDLAFANYAERFARSCKGDGWRRLVERAIRLYLTPVLGKKALPAINRTDVVSVFDNMPADQVANRRNVFAVLRRLFRWAVSRGDLDRSPMEGMLEHHHHHH,not soluble
19,MEAVVDVVDVEEVVEDVDVVVVDQDAVAVVDLNVVVLVVELVAVLDVVLAADHAVVDVVADVVVDAVDVEVEVVSVVPFKNFELMKPIVHLGLKKDHLMTNVSPIIYSPFIYYHDS,not soluble
20,MEDFFSIGQIINTHGVRGELKIYPLTDDINRFDDLDSVYVDNEIKKVISVKKQPNKLILKLEGIDTLDEAVKYKNKYIKVLREDAVELKEGQYFIKDIIGCNVFDENDKDLGEVYDVISTKNNDVYCIRKEGQQDILVPALKDIVLKIEIENKKIVIKAVEEWLESLEHHHHHH,soluble
21,MEDIKSLLLQCPVLAGLPVEGINEAVQIVRARHFDEKALICSKGAQHSSLMVIAKGSVRVNSISSKGKEVTLMIFETGGWFGDNVFSPGMPRIFGATAHTDVTLLELPGDKFRQLLAKYPQSYPVILDLLSRRLWSAISVIEDDAIRGIEERIGRRLLLLAEYQHNRPISAQSCVVKVTREHIANMMGLTRQSVHKVLKKLENSNVLRLQYGSITILNPLKMEAYLKQLE,not soluble
